Results as given in patent US20150368338A1 (Janssen / Centocor, published 2015).
Changes are numbered by the printed parent chain.

T1: IFN-αF (human, UniProt P01568 24-189)
T1 chain: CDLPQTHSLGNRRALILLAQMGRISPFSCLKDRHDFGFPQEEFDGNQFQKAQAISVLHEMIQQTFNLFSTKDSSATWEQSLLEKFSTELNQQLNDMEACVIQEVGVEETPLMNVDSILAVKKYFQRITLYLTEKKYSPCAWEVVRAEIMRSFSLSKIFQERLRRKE

B1: IFWM3331 (antibody, IgG1, V domains shown)
VH: EVQLVQSGAEVKKPGESLKISCKGSGYSFTSYWIGWVRQMPGKGLEWMGIIDPSDSDTRYSPSFQGQVTISADKSISTAYLQWSSLKASDTAMYYCARHPGLNWAPDFDYWGQGTLVTVSS
VL: DIQMTQSPSSLSASVGDRVTITCRASQSIDNSYLNWYQQKPGKAPKLLIYGASSLQSGVPSRFSGSGSGTDFTLTISSLQPEDFATYYCQQGWDWPLTFGQGTKVEIK
B2: IFWM3328 (antibody, IgG1, V domains shown)
VH: B1 VH
VL: DIQMTQSPSSLSASVGDRVTITCRASQSINNLNWYQQKPGKAPKLLIYWASSLQSGVPSRFSGSGSGTDFTLTISSLQPEDFATYYCQQGYDTPFTFGQGTKVEIK
B3: IFWM3320 (antibody, IgG1, V domains shown)
VH: B1 VH
VL: DIQMTQSPSSLSASVGDRVTITCRASQSINGVLNWYQQKPGKAPKLLIYFASSLQSGVPSRFSGSGSGTDFTLTISSLQPEDFATYYCQQSHDFPLTFGQGTKVEIK
B4: IFWM3304 (antibody, IgG1, V domains shown)
VH: B1 VH
VL: B3 VL with N30G, G31S, V32A, H92Y
B5: IFWM3310 (antibody, IgG1, V domains shown)
VH: B1 VH
VL: B3 VL with N30G, G31K, V32S, H92Y
B6: IFWM3423 (antibody, IgG1, V domains shown)
VH: B1 VH with N103A
VL: B3 VL with N30D, V32F, H92Y, F94L, L96I
B7: IFWM3308 (antibody, IgG1, V domains shown)
VH: B1 VH
VL: B3 VL with N30A, G31E, V32F, H92I
B8: IFWM3421 (antibody, IgG1, V domains shown)
VH: B1 VH
VL: B3 VL with N30D, V32F, H92Y, F94L, L96I
B9: IFWM371 (antibody, IgG1, V domains shown)
VH: B1 VH
VL: not shown
B10: IFWM3322 (antibody, IgG1, V domains shown)
VH: B1 VH
VL: B3 VL with N30A, G31D, V32F, D93S
B11: IFWM3321 (antibody, IgG1, V domains shown)
VH: B1 VH
VL: B3 VL with N30D, V32A, S91A, H92Y
B12: IFWM3314 (antibody, IgG1, V domains shown)
VH: B1 VH
VL: B3 VL with N30D, G31R, V32A, H92F
B13: IFWM3332 (antibody, IgG1, V domains shown)
VH: B1 VH
VL: B1 VL with D30A, S32T, Y33N, Y50H, G51W, G92W, W93Y, W95N
B14: IFWM3405 (antibody, IgG1, V domains shown)
VH: B1 VH with N103A
VL: B1 VL with D30A, S32N, Y33N, Y50H, G51W, W93Y, W95T, L97F
notes: mAb; IgG1/kappa said of the parent and of selected mAbs; also called IFWB3140
B15: IFWM3307 (antibody, IgG1, V domains shown)
VH: B1 VH
VL: B3 VL with N30G, G31D, V32F, S91A, H92L
B16: IFWM3400 (antibody, IgG1, V domains shown)
VH: B1 VH with N103A
VL: B3 VL with N30A, G31D, V32F, D93S
notes: mAb; IgG1/kappa said of the parent and of selected mAbs; also called IFWB3135
B17: IFWM3385 (antibody, IgG1, V domains shown)
VH: B1 VH with N103A
VL: B3 VL with N30G, G31D, V32F, S91A, H92L
notes: mAb; IgG1/kappa said of the parent and of selected mAbs; also called IFWB3120
B18: IFWM3399 (antibody, IgG1, V domains shown)
VH: B1 VH with N103A
VL: B3 VL with N30D, V32A, S91A, H92Y
notes: mAb; IgG1/kappa said of the parent and of selected mAbs; also called IFWB3134
B19: IFWM3413 (antibody, IgG1, V domains shown)
VH: B1 VH with N103A
VL: B2 VL with N31Y, W49G, G90S, Y91H, T93W, F95I
notes: mAb; IgG1/kappa said of the parent and of selected mAbs; also called IFWB3148
B20: IFWM3406 (antibody, IgG1, V domains shown)
VH: B1 VH with N103A
VL: B2 VL
notes: mAb; IgG1/kappa said of the parent and of selected mAbs; also called IFWB3141
B21: IFWM3415 (antibody, IgG1, V domains shown)
VH: B1 VH with N103A
VL: B1 VL with D30S, Y33N, Y50H, G51W, G92W, W93Y, W95H
notes: mAb; IgG1/kappa said of the parent and of selected mAbs; also called IFWB3150
B22: IFWM3417 (antibody, IgG1, V domains shown)
VH: B1 VH with N103A
VL: B1 VL with D30A, S32N, Y33D, Y50H, G51W, G92D, W93Y
notes: mAb; IgG1/kappa said of the parent and of selected mAbs; also called IFWB3152

Target: T1, IFN-αF
Experiment: cell-based or functional assay

Row | IC50, ISRE assay [nM] | Binder
1 | 0.048 | B1
2 | 0.631 | B2
3 | 0.054 | B3
4 | 0.062 | B4
5 | 0.111 | B5
6 | 0.008 | B6
7 | 0.155 | B7
8 | 0.011 | B8
9 | 16 | B9
10 | 0.117 | B10
11 | 0.054 | B11
12 | 0.058 | B12
13 | 0.228 | B13
14 | 0.035 | B14
15 | 0.17 | B15
16 | 0.043 | B16
17 | 0.066 | B17
18 | 0.029 | B18

Target: IFN-αH2 (human, UniProt P01570 24-189)
Experiment: cell-based or functional assay

Row | IC50, ISRE assay [nM] | Binder
19 | 0.033 | B1
20 | 0.44 | B2
21 | 0.023 | B3
22 | 0.042 | B4
23 | 0.045 | B5
24 | 0.004 | B6
25 | 0.032 | B7
26 | 0.008 | B8
27 | 9.6 | B9
28 | 0.046 | B10
29 | 0.028 | B11
30 | 0.04 | B12
31 | 0.092 | B13
32 | 0.016 | B14
33 | 0.088 | B15
34 | 0.015 | B16
35 | 0.029 | B17
36 | 0.013 | B18

Target: T2, IFN-αG (human, UniProt P01569 24-189)
Experiment: cell-based or functional assay

Row | IC50, ISRE assay [nM] | Binder
37 | 0.027 | B1
38 | 0.486 | B2
39 | 0.082 | B3
40 | 0.047 | B4
41 | 0.073 | B5
42 | 0.009 | B6
43 | 0.167 | B7
44 | 0.018 | B8
45 | 12.9 | B9
46 | 0.083 | B10
47 | 0.034 | B11
48 | 0.057 | B12
49 | 0.099 | B13
50 | 0.026 | B14
51 | 0.095 | B15
52 | 0.035 | B16
53 | 0.077 | B17
54 | 0.029 | B18

Target: T3, IFN-αC (human, UniProt P01566 24-189)
Experiment: cell-based or functional assay

Row | IC50, ISRE assay [nM] | Binder
55 | 0.098 | B1
56 | 1.42 | B2
57 | 0.392 | B3
58 | 0.117 | B4
59 | 0.196 | B5
60 | 0.012 | B6
61 | 0.996 | B7
62 | 0.02 | B8
63 | 53.9 | B9
64 | 0.306 | B10
65 | 0.266 | B11
66 | 0.157 | B12
67 | 0.479 | B13
68 | 0.068 | B14
69 | 0.583 | B15
70 | 0.138 | B16
71 | 0.272 | B17
72 | 0.189 | B18

Target: T4, IFN-α4a (human, UniProt P05014 24-189)
T4 construct: Recombinant, HEK293; also called IFN-αM1
Experiment: ProteOn SPR, cell supernatant;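 also: each binding measurement used just a single antigen concentration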

Row | Kd [nM] | Binder
73 | 0.206 | B19
74 | 0.067 | B14
75 | 0.135 | B16
76 | 0.135 | B20
77 | 0.069 | B21
78 | 0.1 | B22
79 | 0.178 | B17
80 | 0.088 | B18

Target: T5, IFN-αWA (human, UniProt P05015 24-189)
T5 construct: Recombinant, HEK293; also called IFN-α16
Experiment: ProteOn SPR, cell supernatant;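 also: each binding measurement used just a single antigen concentration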

Row | Kd [nM] | Binder
81 | 0.085 | B19
82 | 0.039 | B14
83 | 0.049 | B16
84 | 0.063 | B20
85 | 0.044 | B21
86 | 0.059 | B22
87 | 0.052 | B17
88 | 0.037 | B18

Target: T1, IFN-αF
Experiment: ProteOn SPR, cell supernatant;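 also: each binding measurement used just a single antigen concentration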

Row | Kd [nM] | Binder
89 | 0.033 | B19
90 | 0.019 | B14
91 | 0.022 | B16
92 | 0.037 | B20
93 | 0.026 | B21
94 | 0.039 | B22
95 | 0.041 | B17
96 | 0.021 | B18

Target: T6, human IFN-ω (human, UniProt P05000 24-195)
T6 construct: Recombinant, HEK293; also called interferon omega
Experiment: ProteOn SPR, cell supernatant;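 also: each binding measurement used just a single antigen concentration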

Row | Kd [nM] | Binder
97 | 0.047 | B19
98 | 0.02 | B14
99 | 0.033 | B16
100 | 0.078 | B20
101 | 0.018 | B21
102 | 0.029 | B22
103 | 0.032 | B17
104 | 0.03 | B18

Target: T2, IFN-αG
Experiment: ProteOn SPR, cell supernatant;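 also: each binding measurement used just a single antigen concentration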

Row | Kd [nM] | Binder
105 | 0.044 | B19
106 | 0.015 | B14
107 | 0.052 | B16
108 | 0.037 | B20
109 | 0.026 | B21
110 | 0.03 | B22
111 | 0.023 | B17
112 | 0.03 | B18

Target: T3, IFN-αC
Experiment: ProteOn SPR, cell supernatant;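 also: each binding measurement used just a single antigen concentration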

Row | Kd [nM] | Binder
113 | 0.037 | B19
114 | 0.022 | B14
115 | 0.023 | B16
116 | 0.037 | B20
117 | 0.019 | B21
118 | 0.031 | B22
119 | 0.041 | B17
120 | 0.025 | B18

Target: T7, IFN-αJ1 (human, UniProt P01567 24-189)
T7 construct: Recombinant, HEK293; also called IFN-α7
Experiment: ProteOn SPR, cell supernatant

Row | Kd [nM] | Binder
121 | 0.15 | B19
122 | 0.036 | B14
123 | 0.06 | B16
124 | 0.119 | B20
125 | 0.051 | B21
126 | 0.07 | B22
127 | 0.142 | B17
128 | 0.05 | B18
